The numbers were not newly measured in PMC6757120, which cites them from elsewhere.

The series has as its target VEGF-A165 (Homo sapiens) (UniProt P15692).
Chain of UniProt P15692 (P15692 whole entry): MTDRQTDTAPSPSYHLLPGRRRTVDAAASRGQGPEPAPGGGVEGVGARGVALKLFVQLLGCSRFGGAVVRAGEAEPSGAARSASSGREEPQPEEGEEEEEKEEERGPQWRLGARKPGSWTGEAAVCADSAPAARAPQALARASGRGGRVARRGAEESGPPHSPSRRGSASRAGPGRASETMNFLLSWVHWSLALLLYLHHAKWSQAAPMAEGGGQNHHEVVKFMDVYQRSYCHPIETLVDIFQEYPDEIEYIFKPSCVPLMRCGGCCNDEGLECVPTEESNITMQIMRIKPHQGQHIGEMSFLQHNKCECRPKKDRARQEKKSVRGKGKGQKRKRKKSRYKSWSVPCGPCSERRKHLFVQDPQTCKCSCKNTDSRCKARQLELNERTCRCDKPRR

Broadly, the Kd is the constant that tells how readily two partners part at equilibrium. Take NRP1 (from UniProt O14786): the Kd is 3 nM.
